Results reported in article PMC2928128.

B1: harmonin-a Nter domain (residues 1-79) (domain or fragment)
chain: MDRKVAREFRHKVDFLIENDAEKDYLYDVLRMYHQTMDVAVLVGDLKLVINEPNRLPLFDAIRPLIPLKHQVEYDQLTP
B2: harmonin-a Nter-PDZ1 fragment (residues 1-203) (domain or fragment)
chain: MDRKVAREFRHKVDFLIENDAEKDYLYDVLRMYHQTMDVAVLVGDLKLVINEPNRLPLFDAIRPLIPLKHQVEYDQLTPRRSRKLKEVRLDRLHPEGLGLSVRGGLEFGCGLFISHLIKGGQADSVGLQVGDEIVRINGYSISSCTHEEVINLIRTKKTVSIKVRHIGLIPVKSSPEESLKWQYVDQFVSESGGVRGGLGSPG

Biological target: GST-CDH23Δexon68ΔITEL (residues 847-1075)
Assay: SPR

Binder	Kd
B1	> 5000 nM
B2	58 nM
